Legend:
[1] = system: Flt3L-derived bone marrow DCs; assay: Flt3L-derived bone marrow DCs cultured in vitro with AZD5582, IL-12p40 transcripts; format: cell-based; details: 24 hours, various concentrations of AZD5582
Method: FIGS. 13A-C. IL-12 Expressing Cells Express More CD40 and […] can Induce IL-12 Production In vitro. (A) Flow cytometry of MC38 tumors from IL-12p40-eYFP reporter mice, stained for CD40 expression; n=7 per group. (B) Flow cytometry of CD40 expression from the following tumor immune cell populations: Non-Antigen Presenting Cells (non-APCs, defined as F4/80−CD11c−MHCII−), macrophages (F4/80+) and IL-12+ DCs (CD11chi MHCIIhi IL-12+); n=4 per group. (C) Flt3L-derived bone marrow DCs were cultured in vitro with various concentrations of AZD5582 for 24 hours, and were harvested for RNA. Shown is fold change expression of IL-12p40 transcripts compared to untreated conditions (n=3 per condition). Results are representative of at least 2 independent experiments. ****p<0.0001; Student's two tailed t-test.

[2] = system: MC38 tumors; assay: MC38 tumor model: tumor growth, survival, re-challenge; format: in vivo, mice; details: for antitumor response, MC38 tumors: MC38 tumor-bearing mice, treatment as labelled
Method: MC38 tumor cell lines were obtained from Dr. Mark Smyth (QIMR Berghofer). MC38 cells were implanted at 2×10^6 cells in the flank. B16F10 cell lines were obtained from ATCC. B16F10 cells were implanted intradermally at 0.5×10^6 cells in the flank. All tumor models were allowed to grow for one week prior to therapy. Tumor sizes were approximately 75 mm^3 before treatment initiation, and starting tumor volumes were normalized between treatment groups. Percent tumor changes were calculated as percent difference of mouse tumor volume from pre-treatment baseline, measured using digital caliper. Lung seeding B16F10 models received 0.5×10^6 cells intravenously and were allowed to grow for 10 days from the point of implantation. Mouse tumors were allowed to grow to a maximum of 2 cm in diameter, or until tumor ulceration occurred. These were considered as endpoints for survival experiments in accordance with MGH IACUC regulations.
(§1) Tumor bearing mice, with a tumor size of approximately 75 mm^3, were treated with 200 μg of aPD-1 and/or 100 μg of aCD40 intraperitoneally for immunotherapy studies. For combination treatment studies, both aPD-1 and aCD40 were administered at the same time. For IL-12 neutralization studies, mice were dosed with 500 μg of anti-IL-12p40 Clone 17.8 daily for 5-7 days following aPD-1 therapy. Neutralization of IFN-γ in vivo was performed by administering 1 mg of anti-IFN-γ Clone XMG1.2 initially with 500 μg of anti-IFN-γ dosed daily intraperitoneally for days 1-3. The cIAP1/2 inhibitor AZD5582 (Hennessy et al., 2013) was purchased from Selleck Chem and was resuspended in sterile saline. Mice received a single dose of AZD5582 at 10 mg/kg, intraperitoneally. […]
Long-term surviving mice from aPD-1 and aCD40 combination therapy were re-challenged with either MC38 or B16F10 tumors at 50 days following primary tumor rejection. […] Naive C57BL/6J mice were implanted alongside re-challenge mice, and these mice were monitored for tumor growth for 2 weeks following implantation. […]

[3] = system: IL-12p40-eYFP^+ cells; assay: Intravital imaging of MC38 tumors in IL-12p40-eYFP reporter mice; format: in vivo; details: after 48 hours compared to baseline
Method: as §1, with “saline.” for “saline. Mice received a single dose of AZD5582 at 10 mg/kg, intraperitoneally.”
(§2) Interferon gamma reporter (IFN-γ-eYFP) or IL-12p40 reporter (IL12p40-eYFP) mice were anesthetized and dorsal skin-fold window chambers were installed as previously described (Thurber et al., 2013) and mice were treated with analgesic (Buprenorphine 0.1 mg/kg/day) for 3 days following chamber implantation. […] Anesthetized mice were kept on a heating pad kept at 37° C., vital signs monitored and mice were imaged using an Olympus FluoView FV1000MPE confocal imaging system (Olympus America). […] Sequential scanning (5 μm slices) with 405, 473, 559, and 635 nm lasers was performed using voltage and power settings that were optimized using fluorescence minus-one control mice prior to time lapse acquisition. […]

[4] = system: Tumor-infiltrating CD8^+ T cells isolated from MC38 tumors; assay: In vitro restimulation of tumor-infiltrating CD8+ T cells isolated from MC38 tumors (intracellular IFN-γ, flow cytometry); format: cell-based, mice; details: aCD3/CD28 stimulation with IL-12 (20 ng/ml), 72 hours
Method: Tumor tissue or tumor draining lymph nodes were isolated from mice and minced using surgical scissors. Tissues were then digested using 0.2 mg/ml Collagenase II (Worthington) in RPMI 1640 media (CellGro) at 37° C. for 30 minutes and then strained through a 40 μm filter (BD Falcon). Cell suspensions were incubated with Fc Block TruStain FcX Clone 93 (Biolegend) in PBS containing 0.5% BSA and 2 mM EDTA before staining with fluorochrome labeled antibodies. Antibodies against CD11b (M1/70, Biolegend), CD8a (53-6.7, Biolegend), CD45 (30-F11, BD), F4/80 (BM8, Biolegend), CD11c (N418, Biolegend), MHC II I-A/I-E (M5/114.15.2, Biolegend), CD103 (2E7, Biolegend), IFN-γ (XMG1.2, Biolegend) were used for marker staining. 7AAD viability staining was used to exclude dead cells from analysis. Samples were run on a LSR II flow cytometer and analyzed using FlowJo software (Treestar). For intracellular cytokine staining, samples were incubated for 5 hours with GolgiPlug (BD) at 1 μl per ml of culture media. Cells were then surface stained and then fixed and permeabilized using the BD Cytofix/Cytoperm kit (BD) according to manufacturer's protocol and stained for intracellular cytokines.
MC38 tumors were digested into single cell suspensions similar to tissue processing for flow cytometry analysis and were passed through a 40 μm filter. […]

[5] = system: human tumor-infiltrating CD8^+ T cells; assay: IL-12 ex vivo studies: IFN-γ ELISA of stimulated patient tumor-infiltrating CD8+ T cells; format: cell-based; details: aCD3 stimulation with IL-12, six cancer patients, 3 days
Excerpt: IL-12 ex vivo studies: Fresh tumor resections from six cancer patients undergoing surgical treatment at University Hospital Basel, Switzerland were used to assess whether IL-12 can directly activate human tumor-infiltrating CD8^+ T cells upon isolation of these cells ex vivo. Tumor tissue (two lung adenocarcinomas, three squamous cell carcinomas and one synovial sarcoma) was collected from six different patients undergoing primary surgical treatment between November 2015 and November 2017. The study was approved by the local Ethical Review Board (Ethikkommission Nordwestschweiz) and all patients consented in writing to the analysis of their tumor samples. The solid tumor lesions were mechanically dissociated and enzymatically digested using accutase (PAA), collagenase IV (Worthington), hyaluronidase (Sigma) and DNAse type IV (Sigma), directly after excision. Single cell suspensions were prepared and cryopreserved in liquid nitrogen in 90% fetal calf serum (FCS, Brunschwig Pan Biotech) and 10% dimethylsulfoxide (DMSO, Sigma) until further usage. […] Sorting purity was measured by reanalyzing the sorted cells and always reached >95% purity. […] IFN-γ secreted by these cultures was then measured by enzyme-linked immunosorbent assay according to the instructions by the manufacturer (BD, OptEIA human IFN-γ ELISA set). […]

[6] = system: IFN-γ-eYFP^+ cells; assay: Intravital imaging of MC38 tumors in IFN-γ-eYFP reporter mice; format: in vivo; details: recombinant IL-12, by day four, in the absence of aPD-1
Method: as §1, with “saline.” for “saline. Mice received a single dose of AZD5582 at 10 mg/kg, intraperitoneally.”
as §2

[7] = system: B16F10 melanoma; assay: B16F10 melanoma tumor model: tumor growth, survival, re-challenge; format: in vivo; details: B16F10 melanoma-bearing mice, treatment as labelled
Method: Tumor bearing mice, with a tumor size of approximately 75 mm^3, were treated with 200 μg of aPD-1 and/or 100 μg of aCD40 intraperitoneally for immunotherapy studies. For combination treatment studies, both aPD-1 and aCD40 were administered at the same time. […] Mice received a single dose of AZD5582 at 10 mg/kg, intraperitoneally. […]

| Molecule | IL-12 production in vitro [1] | antitumor response, MC38 tumors [2] | fold increase of tumor-infiltrating IL-12^+ cells [3] [fold] | effect of FTY720 on the antitumor response to aPD-1 ([2]; MC38, FTY720 1.25 mg/kg i.p. daily with aPD-1) | IFN-γ production by stimulated CD8^+ T cells [4] | IFN-γ production by CD8^+ T cells [5] | fold increase of IFN-γ-eYFP^+ cells [6] [fold] | antitumor response, B16F10 tumors [7] |
| --- | --- | --- | --- | --- | --- | --- | --- | --- |
| CN[C@@H](C)C(=O)N[C@H](C(=O)N1CCC[C@H]1C(=O)N[C@H]1c2ccccc2C[C@H]1OCC#CC#CCO[C@@H]1Cc2ccccc2[C@@H]1NC(=O)[C@@H]1CCCN1C(=O)[C@@H](NC(=O)[C@H](C)NC)C1CCCCC1)C1CCCCC1 [AZD5582] | potently enhanced IL-12 production in vitro | provided antitumor effects in vivo | 4.0±1.3 |  |  |  |  |  |
| CCCCCCCCc1ccc(CCC(N)(CO)CO)cc1 [FTY720] |  |  |  | did not affect the antitumor response to aPD-1 treatment |  |  |  |  |
| IL-12: recombinant IL-12 in mouse studies; recombinant human IL-12p70 (PeproTech) in the human ex vivo studies (protein, UniProt P29459 23-219; P29460 23-328, looked up) Interleukin-12 subunit alpha: RNLPVATPDPGMFPCLHHSQNLLRAVSNMLQKARQTLEFYPCTSEEIDHEDITKDKTSTVEACLPLELTKNESCLNSRETSFITNGSCLASRKTSFMMALCLSSIYEDLKMYQVEFKTMNAKLLMDPKRQIFLDQNMLAVIDELMQALNFNSETVPQKSSLEEPDFYKTKIKLCILLHAFRIRAVTIDRVMSYLNAS Interleukin-12 subunit beta: IWELKKDVYVVELDWYPDAPGEMVVLTCDTPEEDGITWTLDQSSEVLGSGKTLTIQVKEFGDAGQYTCHKGGEVLSHSLLLLHKKEDGIWSTDILKDQKEPKNKTFLRCEAKNYSGRFTCWWLTTISTDLTFSVKSSRGSSDPQGVTCGAATLSAERVRGDNKEYEYSVECQEDSACPAAEESLPIEVMVDAVHKLKYENYTSSFFIRDIIKPDPPKNLQLKPLKNSRQVEVSWEYPDTWSTPHSYFSLTFCVQVQGKSKREKKDRVFTDKTSATVICRKNASISVRAQDRYYSSSWSEWASVPCS |  | robust antitumor responses |  |  | substantially increased IFN-γ production | increased IFN-γ production by CD8^+ T cells in five out of six patients | 5.9±0.7 | substantial antitumor effect |

— patent US20210355221A1, “Targeting the Non-Canonical NFkB Pathway in Cancer Immunotherapy” (The General Hospital Corporation, priority 2018, published 2021)
